We go through one substance from patent US20030134799A1.

The target of assay [1] is NMDA receptor of well-washed rat forebrain membranes (rat) (UniProt Q9R1M7). The assay is described as follows: displacement of [3H]ifenprodil, polyamine-sensitive site. Background: In a radioligand displacement assay an active substance lowers the binding of a labelled ligand.
Assay [2] has the same target. The assay is described as follows: cell-based or functional assay.
Assay [3] concerns the target NMDA receptor of primary cultures of rat cerebellar granule cells (rat). In words: cell-based or functional assay.
Assay [4] concerns the target NMDA receptor of well-washed rat forebrain membranes (rat) (UniProt Q9R1M7).

Like-named read-outs stand apart in the source and are kept apart here.

NMDA receptor of well-washed rat forebrain membranes (rat), sequence (Q9R1M7 24-1135): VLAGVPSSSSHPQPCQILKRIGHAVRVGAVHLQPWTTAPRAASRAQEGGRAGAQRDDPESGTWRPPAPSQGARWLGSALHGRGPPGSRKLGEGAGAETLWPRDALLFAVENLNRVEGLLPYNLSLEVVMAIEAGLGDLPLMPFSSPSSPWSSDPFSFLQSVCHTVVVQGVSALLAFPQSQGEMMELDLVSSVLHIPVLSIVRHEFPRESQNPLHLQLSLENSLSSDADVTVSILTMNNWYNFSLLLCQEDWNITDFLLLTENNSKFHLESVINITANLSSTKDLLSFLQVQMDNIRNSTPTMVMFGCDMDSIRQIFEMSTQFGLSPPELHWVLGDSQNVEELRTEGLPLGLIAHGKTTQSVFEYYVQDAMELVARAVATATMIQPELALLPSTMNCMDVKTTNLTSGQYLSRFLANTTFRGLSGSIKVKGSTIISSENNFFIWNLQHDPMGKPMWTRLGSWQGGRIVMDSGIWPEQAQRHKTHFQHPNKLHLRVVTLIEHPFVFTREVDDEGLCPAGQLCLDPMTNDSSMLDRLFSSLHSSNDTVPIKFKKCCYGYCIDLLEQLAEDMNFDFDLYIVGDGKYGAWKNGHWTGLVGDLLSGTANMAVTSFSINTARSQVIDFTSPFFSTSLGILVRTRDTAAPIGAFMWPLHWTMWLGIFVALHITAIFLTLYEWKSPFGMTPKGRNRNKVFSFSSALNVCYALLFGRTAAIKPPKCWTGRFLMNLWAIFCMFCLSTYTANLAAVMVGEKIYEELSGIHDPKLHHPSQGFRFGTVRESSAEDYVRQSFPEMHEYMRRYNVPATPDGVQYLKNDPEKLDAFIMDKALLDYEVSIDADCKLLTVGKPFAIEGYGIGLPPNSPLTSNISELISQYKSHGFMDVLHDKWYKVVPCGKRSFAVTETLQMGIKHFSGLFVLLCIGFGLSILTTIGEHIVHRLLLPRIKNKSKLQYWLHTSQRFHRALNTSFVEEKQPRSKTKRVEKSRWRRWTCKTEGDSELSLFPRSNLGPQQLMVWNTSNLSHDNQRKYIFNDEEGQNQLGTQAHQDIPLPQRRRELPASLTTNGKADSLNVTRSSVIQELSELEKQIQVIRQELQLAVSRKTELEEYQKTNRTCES

Ala7-Con-G (peptide): in assay [1], the IC50 was determined as 2.5 µM. Further, in assay [2], the % Inh, spermine-enhanced [3H]MK-801 binding was found to be 100%; the % Sti, [3H]MK-801 binding without spermine was 0%; the IC50, antagonism of Gly-stimulated [3H]MK-801 binding, representative experiment stood at 0.625 µM; the IC50, inhibition of spermine-enhanced [3H]MK-801 binding came out at 0.045 µM. In assay [2], the IC50, inhibition of spermine-enhanced [3H]MK-801 binding, typical experiment was found to be 0.05 µM; the IC50, reduction of Gly stimulated [3H]MK-801 binding was determined as 0.5 µM; the IC50, reduction of spermine stimulated [3H]MK-801 binding was 0.045 µM; the IC (µM), inhibition of spermine-enhanced [3H]MK-801 binding is 0.046 µM. Further, the potency against spermine relative to Con-G in assay [2] was determined as 4 fold. In assay [3], this substance showed an IC50, inhibition of NMDA-stimulated increases in cyclic GMP formation of 0.077 µM and a potency in the cyclic GMP assay relative to Con-G of 4 fold. The IC50 in assay [4] is greater than 2.5 µM.

The IC50 is the point on the concentration scale where inhibition reaches its midpoint.
